From PMC4242682, “The Cpn10(1) Co-Chaperonin of A. thaliana Functions Only as a Hetero-Oligomer with Cpn20” (PLoS ONE, 2014)
Substitutions are numbered along the chain they refer to.

B1: Cpn10(1) co-chaperonin of A. thaliana, lacking the N-terminal chloroplast transit peptide (natural protein, UniProt Q9M1C2 43-138, looked up)
chain: STKWEPAKVVPQADRVLVRLEVLPEKSSGGVLLPKSAVKFERYLTGEVVSVGSEVGEVEPGKKVLFSDMSAYEVDFGTEDAKHCFCKESDLLAIVQ
notes: Cpn10(1), A. thaliana chloroplast co-chaperonin, At3g60210, without the transit peptide; Serine 43 chosen as the first amino acid; Cloned between XhoI and NdeI of pET22b+; source: E. coli BL21(T7+), pET22b+, purified (Mono-Q, Superdex 200, Superdex 75)
B2: Cpn10(2) co-chaperonin of A. thaliana (natural protein, UniProt O80504 40-139, looked up)
chain: IKAISTKWEPTKVVPQADRVLVRLEDLPIKSSGGVLLPKAAVKFERYLTGEIISVGSEVGQQVGPGKRVLFSDVSAYEVDLGTDARHCFCKESDLLALVE
notes: Cpn10(2), A. thaliana chloroplast co-chaperonin, At2g44650
B3: Cpn60α2 (natural protein)
chain: not shown
notes: additional glycine-serine at the N-terminus; Cpn60α2, A. thaliana chloroplast chaperonin α subunit, At2g28000; alanine 46 chosen as the first amino acid of the mature protein; The vector codes for an octa-histidine tag followed by a TEV site
B4: GroES (natural protein, E. coli, UniProt P0A6F9 1-97, looked up)
chain: MNIRPLHDRVIVKRKEVETKSAGGIVLTGSAAAKSTRGEVLAVGNGRILENGEVKPLDVKVGDIVIFNDGYGVKSEKIDNEEVLIMSESDILAIVEA
notes: GroES, the co-chaperonin (Cpn10) of E. coli
B5: Cpn20 co-chaperonin of A. thaliana (natural protein, UniProt O65282 51-253, looked up)
chain: AASVVAPKYTSIKPLGDRVLVKIKEAEEKTLGGILLPSTAQSKPQGGEVVAVGEGRTIGKNKIDITVPTGAQIIYSKYAGTEVEFNDVKHLILKEDDIVGILETEDIKDLKPLNDRVFIKVAEAEEKTAGGLLLTETTKEKPSIGTVIAVGPGSLDEEGKITPLPVSTGSTVLYSKYAGNDFKGKDGSNYIALRASDVMAILS
notes: Cpn20, A. thaliana chloroplast co-chaperonin of two Cpn10-like domains joined head-to-tail, At5g20720

Columns and labels:
[1] = target: the molecule itself; assay: cross-linking; 45 µM co-chaperonin with 1 mM DSS at room temperature, 50 mM Na-HEPES pH 7.5, 10 mM MgCl2, 100 mM KCl; time course; SDS gradient gel, Coomassie
Cpn20 mutant G32A = target: T1, Cpn20 mutant G32A (A. thaliana, UniProt O65282 51-253, G32A); assay: cell-based or functional assay
T1 sequence (looked up): B5 chain with G32A

[2] = target: B5; assay: cell-based or functional assay
Cpn60β3 = target: T2, Cpn60β3 (A. thaliana, UniProt P21240 55-600); assay: SEC; reconstitution of 150 µM Cpn60α2 and 100 µM Cpn60β3 with 50 µM mt-cpn10, 5 mM ATP, 50 mM Tris-HCl pH 8, 300 mM NaCl, 10 mM MgCl2, 16 mM KCl, 2 mM DTT, 1 h 30°C; oligomers separated from monomers on Superdex 200 at room temperature; details: both partners purified
T2 construct: Cpn60β3, A. thaliana chloroplast chaperonin β subunit, At1g55490

[3] = target: the molecule itself; assay: native gel or EMSA; co-chaperonins at 100 µM (protomer) mixed at various ratios, 5 min at room temperature, 6% native acrylamide gel; no Cpn60 or ATP

T2 sequence (P21240 55-600): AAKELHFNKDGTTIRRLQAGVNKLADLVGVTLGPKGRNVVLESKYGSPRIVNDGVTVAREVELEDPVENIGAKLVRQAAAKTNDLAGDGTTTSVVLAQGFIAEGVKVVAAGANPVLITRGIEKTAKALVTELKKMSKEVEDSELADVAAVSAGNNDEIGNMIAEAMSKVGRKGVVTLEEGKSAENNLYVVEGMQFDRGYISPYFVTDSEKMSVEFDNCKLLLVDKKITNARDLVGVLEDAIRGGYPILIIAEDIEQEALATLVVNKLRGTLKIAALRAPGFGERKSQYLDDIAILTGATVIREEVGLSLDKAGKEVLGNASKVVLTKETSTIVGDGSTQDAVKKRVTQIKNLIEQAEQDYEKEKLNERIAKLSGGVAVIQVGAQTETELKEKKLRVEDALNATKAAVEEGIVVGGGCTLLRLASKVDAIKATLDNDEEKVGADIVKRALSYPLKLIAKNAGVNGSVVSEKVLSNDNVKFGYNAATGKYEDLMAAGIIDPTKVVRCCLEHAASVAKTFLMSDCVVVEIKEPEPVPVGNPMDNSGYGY

For B1, the “stoichiometry N” value [1] was 2, the “refolding of urea-denatured MDH by GroEL with the combination of G32A and Cpn10(1), each inactive alone (% of GroEL with saturating GroES)” value (Cpn20 mutant G32A) was roughly 75% and the “refolding of urea-denatured MDH by chloroplast Cpn60αβ with the combination of G32A and Cpn10(1), each inactive alone (% of Cpn60αβ with mt-cpn10)” value (Cpn20 mutant G32A) was roughly 40%. The “refolding of urea-denatured MDH by 10 µM Cpn60αβ, Cpn20 titrated (0.625–20 µM) with constant 20 µM Cpn10(1); against 51.39% with Cpn20 alone (% of Cpn60αβ with mt-cpn10)” value [2] was 77.8%.

With B2 the “stoichiometry N” value [1] was 7 and the “refolding of urea-denatured MDH by Cpn60αβ, Cpn10(2) titrated on a background of 20 µM G32A; at a 0.25 ratio of [co-chaperonin]/[Cpn60αβ], against 18.06% with Cpn10(2) alone” value (Cpn20 mutant G32A) was 29.1%.

B3: binds (Cpn60β3).

For B4, the “stoichiometry N” value [1] was 7.

B5: binds [3].
